Test results as given in patent US6207419A, “Thrombin inhibitory agents and methods of using same” (The University of North Carolina at Chapel Hill, priority 1999, dated 2001).
Where a chain is given by its changes, count along the chain named. In names and notes the source's numbering stands.

B1: wt-rHCII: Human wild type recombinant heparin cofactor II expressed in the baculovirus expression system (protein, UniProt P05546 20-499, looked up)
Heparin cofactor 2: GSKGPLDQLEKGGETAQSADPQWEQLNNKNLSMPLLPADFHKENTVTNDWIPEGEEDDDYLDLEKIFSEDDDYIDIVDSLSVSPTDSDVSAGNILQLFHGKSRIQRLNILNAKFAFNLYRVLKDQVNTFDNIFIAPVGISTAMGMISLGLKGETHEQVHSILHFKDFVNASSKYEITTIHNLFRKLTHRLFRRNFGYTLRSVNDLYIQKQFPILLDFKTKVREYYFAEAQIADFSDPAFISKTNNHIMKLTKGLIKDALENIDPATQMMILNCIYFKGSWVNKFPVEMTHNHNFRLNEREVVKVSMMQTKGNFLAANDQELDCDILQLEYVGGISMLIVVPHKMSGMKTLEAQLTPRVVERWQKSMTNRTREVLLPKFKLEKNYNLVESLKLMGIRMLFDKNGNMAGISDQRIAIDLFKHQGTITVNEEGTQATTVTTVGFMPLSTQVRFTVDRPFLFLIYEHRTSCLLFMGRVANPSRS
B2: rHCII-L444R-CHis6: HCII mutant that contains both L444R and a hexahistidine carboxyl tag (protein, UniProt P05546 20-499, looked up, variant L444R)
Heparin cofactor 2: B1 Heparin cofactor 2 with L444R
modifications: C-terminal His6 tag
B3: rHCII-CHis5 Pro: Recombinant HCII mutant with a His5 Pro carboxyl-terminal tag; SEQ ID NO:7 (protein)
chain: MKHSLNALLIFLIITSAWGGSKGPLDQLEKGGETAQSADPQWEQLNNKNLSMPLLPADFHKENTVTNDWIPEGEEDDDYLDLEKIFSEDDDYIDIVDSLSVSPTDSDVSAGNILQLFHGKSRIQRLNILNAKFAFNLYRVLKDQVNTFDNIFIAPVGISTAMGMISLGLKGETHEQVHSILHFKDFVNASSKYEITTIHNLFRKLTHRLFRRNFGYTLRSVNDLYIQKQFPILLDFRTKVREYYFAEAQIADFSDPAFISKTNNHIMKLTKGLIKDALENIDPATQMMILNCIYFKGSWVNKFPVEMTHNHNFRLNEREVVKVSMMQTKGNFLAANDQELDCDILQLEYVGGISMLIVVPHKMSGMKTLEAQLTPRVVERWQKSMTNRTREVLLPKFKLEKNYNLVESLKLMGIRMLFDKNGNMAGISDQRIAIDLFKHQGTITVNEEGTQATTVTTVGFMPLSTQVRFTVDRPFLFLIYEHRTSCLLFMGRVANPSRSHHHHHP
modifications: His5 Pro C-terminal tag

Tests used:
thrombin [1] = assay: Thrombin inhibition in the absence of glycosaminoglycan; format: biochemical, human
Description: All assays were performed at room temperature in 96-well microtiter plates previously coated with 2 mg/mL BSA.
(§1) Residual thrombin activity was measured with 150 μM GlyProArg-NA and 1 mg/mL pB in the absence of glycosaminoglycan, 2 mg/mL pB in the presence of heparin and 4 mg/mL in the presence of dermatan sulfate. Residual factor Xa activity was measured with 500 μM Spectrozyme FXa and 2mg/mL pB in the presence or absence of glycosaminoglycan. Residual chymotrypsin activity was measured with 150 μM AlaAlaProPhe-NA and residual trypsin activity was measured with 150 μM GlyProArg-NA.
(§2) Assays were performed at least in triplicate on two or more recombinant protein preparations.

chymotrypsin = assay: Chymotrypsin inhibition in the absence of glycosaminoglycan; format: biochemical; conditions: pH 7.4, mean ± S.D.
Description: (§3) Protease inhibition rates were determined as described previously (Rogers, S. J., Pratt, C. W., Whinna, H. C., and Church, F. C. (1992) J. Biol. Chem. 267(6), 3613-3617; Whinna, H. C., Choi, H. U., Rosenberg, L. C., and Church, F. C. (1993) J. Biol. Chem. 268, 3920-3924; Ciaccia, A. V., Cunningham, E. L., and Church, F. C. (1995) Protein Express. Purific. 6, 806-812; Ciaccia, A. V., Willemze, A. J., and Church, F. C. (1997) J. Biol. Chem. 272(2), 888-893). All assays were performed at room temperature in 96-well microtiter plates previously coated with 2 mg/mL BSA.
In the absence of glycosaminoglycan, 50-100 nM rHCII (wt, CHis6, CHis5 Pro, L444R, or L444R-CHis6) or rATIII (wt or CHis6) was incubated with 1 nM thrombin, 0.5 nM Factor Xa, 2 nM chymotrypsin, or 5 nM trypsin, in the presence of 1 mg/mL Polybrene (pB) (for thrombin and Factor Xa) and 2 mg/mL BSA in HNPN, pH 7.4.
as §1, with “GlyProArg-NA. Substrate cleavage was measured by color development at […] on a Vmax Kinetic Microplate Reader (Molecular Devices).” for “GlyProArg-NA.”
(§4) Assays were performed at least in triplicate on two or more recombinant protein preparations. All inhibition studies were measured under pseudo-first order conditions where inhibitor [I] is at least ten-fold higher than enzyme (protease) [E], and second-order rate constants were calculated as described previously (Ciaccia, A. V., Cunningham, E. L., and Church, F. C. (1995) Protein Express. Purific. 6, 806-812; Ciaccia, A. V., Willemze, A. J., and Church, F. C. (1997) J. Biol. Chem. 272(2), 888-893).

[2] = biological target: T1, plasma purified α-thrombin (Homo sapiens, UniProt P00734); assay: Thrombin inhibition in the presence of glycosaminoglycans (heparin or dermatan sulfate); format: biochemical; conditions: for maximal rate of thrombin inhibition in the presence of dermatan sulfate: dermatan sulfate at optimal concentration; for maximal rate of thrombin inhibition in the presence of heparin: heparin at optimal concentration
T1 construct: Human α-thrombin, HCII, and ATIII were purified in our laboratory from plasma; from tissue; host or cells: human plasma (purified in the authors' laboratory)
Description: as §3
In the presence of glycosaminoglycans, 5 nM rHCII (wt, CHis6, CHis5 Pro, L444R, or L444R-CHis6) was incubated with 0.5 nM thrombin and 0-1 mg/mL heparin or 0-4 mg/mL dermatan sulfate or 10 nM rATIII (wt or CHis6) was incubated with 1 nM thrombin or factor Xa and 0-1 mg/mL heparin in the presence of 2 mg/mL BSA in HNPN, pH 7.4.
as §1, with “GlyProArg-NA. Substrate cleavage was measured by color development at […] on a Vmax Kinetic Microplate Reader (Molecular Devices).” for “GlyProArg-NA.”
as §4

[3] = Heparin-Sepharose affinity chromatography; format: binding; conditions: NaCl gradient, 20 mM Hepes pH 7.4
Description: 100 μL of each fraction was aliquoted onto a 96-well microtiter plate and ELISA was performed. The peak elution ionic strength was determined by plotting 405 nm color development and NaCl concentration against the fraction number. All samples were run at least in triplicate using two or more protein preparations. Recombinant ATIII samples were run similarly to the HCII samples, except the elution gradient was run from 50 mM to 2 M NaCl.

α-thrombin = biological target: T2, α-thrombin (Homo sapiens, UniProt P00734); assay: Effect of hirugen on thrombin inhibition in the absence of glycosaminoglycan; format: biochemical; conditions: for rate constant of inhibition (k2) in the absence of peptide: no hirugen, no control peptide, FIG. 5
T2 construct: Human α-thrombin, HCII, and ATIII were purified in our laboratory from plasma; from tissue; host or cells: human plasma (purified in the authors' laboratory)
Description: as §1, §2

thrombin [4] = assay: Plasma-based thrombin inhibition assay; format: biochemical, human; conditions: 10 nM serpin
Description: The assay to evaluate rHCII (wt and rHCII-CHis6) in plasma was designed based on previously published methods (Tollefsen, D. M., and Pestka, C. A. (1985) Blood 66(4), 769-774; Griffith, M. J., Carraway, T., White, G. C., and Dombrose, F. A. (1983) Blood 61(1), 111-118). All assays were performed at room temperature in 96-well microtiter plates previously coated with 2 mg/mL BSA. This assay was performed using normal hemostasis reference plasma (REF), human antithrombin III-deficient plasma (DEF), or a 50:50 mixture of these plasmas (REF/DEF). Within the assay, 10 nM rHCII or rHCII-CHis6 was incubated for 15 sec with I nM thrombin and 1 μg/mL heparin or 50 μg/mL dermatan sulfate, in the presence of a 1:100 dilution of plasma. Residual thrombin activity was measured with 300 μM GPA and 2 mg/mL pB. Substrate cleavage was measured by color development at […] on a Vmax Kinetic Microplate Reader. Second order rate constants were measured at least in triplicate on two recombinant protein preparations as described in Example 4.

[5] = test system: plasma-purified α-thrombin; assay: Thrombin inhibition with heparin before and after carboxypeptidase A digest; format: biochemical, human; conditions: 2 hr, room temperature, FIG. 3
Description: Forty ng of CPA was combined with approximately 1 μg of recombinant protein and incubated at room temperature. Following a 2-hr incubation at room temperature, 2 mM EDTA was added to quench CPA activity. Controls were run in which EDTA was added to the reaction prior to the addition of CPA. CPA digested proteins were then assayed according to previously mentioned procedures.

[6] = hirugen 20 μM, absence of glycosaminoglycan

Row | Molecule | dermatan sulfate concentration at maximal rate of thrombin inhibition [2] | maximal rate of thrombin inhibition in the presence of dermatan sulfate [2] | heparin concentration at maximal rate of thrombin inhibition [2] | maximal rate of thrombin inhibition in the presence of heparin [2] | Heparin-Sepharose [NaCl], peak elution concentration [3] [mM] | rate constant of inhibition (k2) in the absence of peptide (α-thrombin) [M⁻¹ s⁻¹] | change of heparin-dependent thrombin inhibition after CPA digest, in words [5] | rate of thrombin inhibition in the absence of glycosaminoglycan (thrombin [1]) | also measured
1 | B1 | approximately 500 μg/mL | 1.52±0.31×10^9 M^-1 min^-1 | 50 to 100 µg/mL | 9.29±2.8×10^8 M^-1 min^-1 | 350 | 253 | do not drastically change | – | k2 × 10^4 (M^-1 min^-1), thrombin (thrombin [1]; pH 7.4, mean ± S.D.): 1.30 ± .19 × 10^4 (M^-1 min^-1); k2 × 10^4 (M^-1 min^-1), chymotrypsin (chymotrypsin): 71.0 ± 12 × 10^4 (M^-1 min^-1); average dermatan sulfate concentration at which the maximal rate was measured (in parentheses), thrombin ([2]; Thrombin + dermatan sulfate, unit not printed in table (text b157: μg/mL)): 500; average heparin concentration at which the maximal rate was measured (in parentheses), thrombin ([2]; Thrombin + heparin, unit not printed in table (text b156: μg/mL)): 50; Inhibition Rate k2 × 10^8 (M^-1 min^-1), Thrombin + dermatan sulfate ([2]; maximal rate of dermatan sulfate curve, mean ± S.D.): 15.2 ± 3.1 × 10^8 (M^-1 min^-1); Inhibition Rate k2 × 10^8 (M^-1 min^-1), Thrombin + heparin ([2]; maximal rate of heparin curve, mean ± S.D.): 9.29 ± 2.8 × 10^8 (M^-1 min^-1); reduction of rate of thrombin inhibition by hirugen (α-thrombin; [6]): > 50%; Inhibition Rate k2 × 10^8 (M^-1 min^-1), thrombin in plasma (thrombin [4]; Dermatan Sulfate (50 μg/mL), 50:50 Mixture (REF/DEF) plasma 1:100): 5.8 ± .24 × 10^8 (M^-1 min^-1); Inhibition Rate k2 × 10^8 (M^-1 min^-1), thrombin in plasma (thrombin [4]; Dermatan Sulfate (50 μg/mL), ATIII Deficient (DEF) plasma 1:100): 6.5 ± .50 × 10^8 (M^-1 min^-1); Inhibition Rate k2 × 10^8 (M^-1 min^-1), thrombin in plasma (thrombin [4]; Dermatan Sulfate (50 μg/mL), Normal Reference (REF) plasma 1:100): 5.7 ± .45 × 10^8 (M^-1 min^-1); Inhibition Rate k2 × 10^8 (M^-1 min^-1), thrombin in plasma (thrombin [4]; Heparin (1 μg/mL), 50:50 Mixture (REF/DEF) plasma 1:100): 1.9 ± .050 × 10^8 (M^-1 min^-1); Inhibition Rate k2 × 10^8 (M^-1 min^-1), thrombin in plasma (thrombin [4]; Heparin (1 μg/mL), ATIII Deficient (DEF) plasma 1:100): .26 ± .050 × 10^8 (M^-1 min^-1); Inhibition Rate k2 × 10^8 (M^-1 min^-1), thrombin in plasma (thrombin [4]; Heparin (1 μg/mL), Normal Reference (REF) plasma 1:100): 22 ± .17 × 10^8 (M^-1 min^-1)
2 | B2 | ~ 200 μg/mL | 8.81±0.20×10^8 M^-1 min^-1 | ~ 20 μg/mL | 2.47±0.35×10^8 M^-1 min^-1 | 600 | 35300 | – | 1.59±0.26×10^6 M^-1 min^-1 | rate of thrombin inhibition relative to rHCII-CHis6 (thrombin [1]): ~ 100 fold; rate of thrombin inhibition compared in words with the untagged serpin (thrombin [1]; comparator rHCII-L444R or wt-rATIII as in sentence): not significantly different; effect of hirugen on thrombin inhibition, in words (α-thrombin; [6]): less of an effect
3 | B3 | – | – | 10 µg/mL | 1.87±0.37×10^9 M^-1 min^-1 | – | – | does not change appreciably | 32000 M⁻¹ min⁻¹ | rate of thrombin inhibition relative to wt-rHCII (thrombin [1]): ~ 2 fold
